According to doi:10.1101/2021.03.04.434028 (bioRxiv, 2021):
Like-named read-outs stand apart in the source and are kept apart here.

T1: HigA antitoxin of the complexes analysed by size exclusion chromatography (Proteus vulgaris (plasmid Rts1), UniProt Q7A224 1-104)
T1 sequence (looked up): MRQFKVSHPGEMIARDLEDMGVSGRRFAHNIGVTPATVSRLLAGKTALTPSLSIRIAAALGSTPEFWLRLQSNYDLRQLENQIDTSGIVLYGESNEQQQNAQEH

B1: HigB(L5ext), HigB with loop 5 extended by NGNG (natural protein)
chain: MIKSFKHKGLKLLFEKGVTSGVPAQDVDRINDRLQAIDTATEIGELNRQIYKLHPLKGDREGYWSITVRANWRITFQFINGDNGNGAYILNYEDYH
B2: HigA antitoxin with C-terminal His6 tag of the HigBHigA-His6 complex (selenomethionine-derivatized) (natural protein, Proteus vulgaris (plasmid Rts1), UniProt Q7A224 1-104, looked up)
chain: T1 sequence (looked up)
modifications: selenomethionine-derivatized
B3: HigA antitoxin of the His6-HigBHigA complex (natural protein, Proteus vulgaris (plasmid Rts1), UniProt Q7A224 1-104, looked up)
chain: T1 sequence (looked up)
B4: HigB toxin of the His6-HigBHigA complex (natural protein)
chain: MIKSFKHKGLKLLFEKGVTSGVPAQDVDRINDRLQAIDTATEIGELNRQIYKLHPLKGDREGYWSITVRANWRITFQFINGDAYILNYEDYH
B5: Wild-type HigB toxin of the HigB2HigA2 complex analysed by size exclusion chromatography (natural protein)
chain: B4 chain

Experiments:
[1] = system: HigB (of wild-type HigB2HigA2 complex);HigA (of wild-type HigB2HigA2 complex) (Proteus vulgaris (plasmid Rts1);Proteus vulgaris (plasmid Rts1)); experiment: EMSA; conditions: binding buffer pH not stated ([…]
[2] = molecular target: T1, HigA antitoxin of the complexes …; experiment: SEC
crystal structure [3] = molecular target: the molecule itself; experiment: crystal structure
crystal structure [4] = molecular target: the molecule itself; experiment: crystal structure; remark: listed apart in the source
[5] = molecular target: B3; experiment: crystal structure

O1(scrambled)-O2 (O2 only)
Kd [1]: 240 nM

O1-O2(scrambled) (O1 only)
Kd [1]: 360 nM

B1
binding result [2]: binds

B2
stoichiometry N (crystal structure [3]): 2

B3
stoichiometry N (crystal structure [4]): 2

B4
binding result [5]: binds

B5
binding result [2]: binds
